B1: b96.11 Fab (recombinant Fab based on the human APS-2-associated autoantibody b96.11) (Fab, V domains shown)
VH: EVQLVESGGGLVQPGRSLRLSCSASGFTFGDYAMSWFRLAPGKGLEWVGLIKSRAIDGTPQYAASVKGRFTISRDDSNSIAYLQMNSLTTEDTAIYYCARDFYDFWNEFSHRTFDFWGQGTLVTVSS
VL: QSALTQPASASGSPGQSVTITCTGSSSDVGGYKYVSWYQHHPGKAPKLMIYEVSKRPSGVPDRFSGSKSGNMASLTVSGLQAEDEADYYCSSYAGSYNFYVFGNGTKVTVL
B2: b96.11 IgG (purified monoclonal b96.11 IgG antibody) (antibody, V domains shown)
VH: B1 VH
VL: B1 VL

Experiments:
[1] = molecular target: T1, apoGAD65 (glutamate decarboxylase GAD65, residues 84-585, purified without added PLP) (human, UniProt Q05329); experiment: HDX-MS
T1 sequence (Q05329 84-585): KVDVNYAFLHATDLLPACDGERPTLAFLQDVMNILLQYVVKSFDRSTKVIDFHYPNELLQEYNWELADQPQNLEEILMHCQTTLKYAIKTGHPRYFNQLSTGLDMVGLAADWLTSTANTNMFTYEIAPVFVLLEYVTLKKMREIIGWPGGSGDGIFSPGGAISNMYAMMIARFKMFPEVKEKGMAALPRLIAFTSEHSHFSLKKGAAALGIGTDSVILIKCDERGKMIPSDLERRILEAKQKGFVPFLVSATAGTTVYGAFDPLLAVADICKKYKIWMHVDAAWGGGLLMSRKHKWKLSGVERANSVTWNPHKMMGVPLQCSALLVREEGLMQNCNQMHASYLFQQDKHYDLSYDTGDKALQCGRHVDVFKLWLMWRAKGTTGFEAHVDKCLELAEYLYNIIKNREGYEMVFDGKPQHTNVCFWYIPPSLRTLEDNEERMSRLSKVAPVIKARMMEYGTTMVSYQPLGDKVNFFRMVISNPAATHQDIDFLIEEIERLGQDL

[2] = molecular target: T1, apoGAD65 (glutamate decarboxylase …); experiment: SPR

Row | Binder | binding result [1] | binding result [2]
1 | B1 | binds | 
2 | B2 |  | binds

— article doi:10.1101/2024.03.18.585568 (bioRxiv, 2024)
